Measured values taken from patent publication US20260132208A1 (DOMAIN THERAPEUTICS, published 2026).
Residue numbers refer to the chain shown, from its start. Several values for one entry are separate records, joined by “and”; a condition that tells them apart may be missing. Equal values may be shown once.

B1: anti-CCR8 mAb 1-21 (antibody, human IgG1, kappa)
heavy: not shown
light: DIVMTQAAPSLSVTPGESASISCTSSKSLLHSNGNTYLYWFLQKPGQSPQLLIYRMSNLASGVPDRFSGSGSGTAFTLKISRVEAEDVGVYYCMQHREYPFTFGSGTKLEIKRTVAAPSVFIFPPSDEQLKSGTASVVCLLNNFYPREAKVQWKVDNALQSGNSQESVTEQDSKDSTYSLSSTLTLSKADYEKHKVYACEVTHQGLSSPVTKSFNRGEC
notes: Humanized mAb; Fc from human IgG1 allotype G1m17 with the terminal lysine deleted and the SDIE mutations (already in the entry)
B2: anti-CCR8 mAb 1-26 (antibody, human IgG1, kappa)
heavy: not shown
light: B1 light
modifications: afucosylated Fc glycan
notes: Afucosylated humanized mAb; same chains as 1-21
B3: anti-CCR8 mAb 1-23 (antibody, human IgG1, kappa, V domains shown)
VH: QVQLVQSGPEVVKPGASVKVSCKTSGYTFTEYTIHWVRQAPGQSLEWVGGINPNNGNTRYDQKFQGRVTITRDKSASTAYMELRSLTSEDTAVYYCARVARSSGSGPYAMDYWGQGTTVTVSS
VL: DVVMTQSPLSLPVTLGDQASISCRCSQSLLHTNGDTYLHWYLQRPGQSPRLLIYKVSNRFSGVPDRFSGSGSGTDFTLKISRVEAEDVGVYFCSQSTHVPYTFGGGTKVEIKR
notes: Humanized mAb, human IgG1 / kappa
B4: anti-CCR8 mAb 1-24 (antibody, human IgG1, kappa, V domains shown)
VH: B3 VH with V5Q, A40S, P41H, Q65K, R72I, A76S
VL: B3 VL
notes: as for B3
B5: anti-CCR8 mAb 1-34 (antibody, human IgG1, kappa)
heavy: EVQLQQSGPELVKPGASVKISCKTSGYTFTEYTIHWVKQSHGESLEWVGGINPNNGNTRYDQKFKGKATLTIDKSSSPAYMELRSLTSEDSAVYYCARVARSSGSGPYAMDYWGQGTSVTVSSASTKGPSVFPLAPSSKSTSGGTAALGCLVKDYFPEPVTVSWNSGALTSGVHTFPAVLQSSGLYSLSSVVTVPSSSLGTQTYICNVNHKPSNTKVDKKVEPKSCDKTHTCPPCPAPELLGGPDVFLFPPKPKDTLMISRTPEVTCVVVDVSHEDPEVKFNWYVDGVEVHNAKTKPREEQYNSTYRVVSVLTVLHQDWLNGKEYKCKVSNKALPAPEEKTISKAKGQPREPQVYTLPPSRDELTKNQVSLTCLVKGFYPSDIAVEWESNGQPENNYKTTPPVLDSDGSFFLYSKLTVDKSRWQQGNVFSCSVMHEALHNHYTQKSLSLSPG
light: DVVMTQTPLSLPVSLGDQASISCRCTQSLLHTNGDTYLHWYLQKPGQSPKLLIYKVSNRFSGVPDRFSGSGSGTDFTLKISRVEAEDLGVYFCSQSTHVPYTFGGGTKLEIKRTVAAPSVFIFPPSDEQLKSGTASVVCLLNNFYPREAKVQWKVDNALQSGNSQESVTEQDSKDSTYSLSSTLTLSKADYEKHKVYACEVTHQGLSSPVTKSFNRGEC

What was measured:
human CCR8 [1] = target: T1, human CCR8 (human, UniProt P51685 1-355); assay: cell-based or functional assay
human CCR8 [2] = target: T1, human CCR8; assay: cell-based or functional assay; remark: listed apart in the source
human CCR8 [3] = target: T1, human CCR8; assay: cell-based or functional assay; remark: listed apart in the source
human CCR8 [4] = target: T1, human CCR8; assay: cell-based or functional assay; remark: listed apart in the source
human CCR8 [5] = target: T1, human CCR8; assay: cell-based or functional assay; remark: listed apart in the source
human CCR8 [6] = target: T1, human CCR8; assay: cell-based or functional assay; remark: listed apart in the source
pwt1 = target: T2, pwt1 (none (unmodified peptide)); assay: ELISA on coated peptide [cont.]
T2 construct: also called unmodified CCR8 N-terminal peptide
Summary of the method: (§1)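 Wells were coated with CCR8-related peptides at 500 ng/ml in carbonate/bicarbonate buffer. Anti-CCR8 mAbs were tested from 1 μg/mL in 1/10 dilutions and bound for 90 min at room temperature. Detection used TMB for 15 min with an optical density read-out.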

pm1 = target: T3, pm1 (sulfated tyrosine(s) among Y15, Y16, Y17; which ones is not told (the underlining of Table 1 is lost in the text)); assay: ELISA on coated peptide [cont.]
T3 construct: also called sulfated CCR8 N-terminal peptide pm1
Summary of the method: as §1

pm2 = target: T4, pm2 (sulfated tyrosine(s) among Y15, Y16, Y17; which ones is not told (the underlining of Table 1 is lost in the text)); assay: ELISA on coated peptide [cont.]
T4 construct: also called sulfated CCR8 N-terminal peptide pm2
Summary of the method: as §1

pm3 = target: T5, pm3 (Y17 sulfated; Y15 and Y16 not sulfated); assay: ELISA on coated peptide [cont.]
T5 construct: also called sulfated CCR8 N-terminal peptide pm3
Summary of the method: as §1

pm4 = target: T6, pm4 (sulfated tyrosine(s) among Y15, Y16, Y17; which ones is not told (the underlining of Table 1 is lost in the text)); assay: ELISA on coated peptide [cont.]
T6 construct: also called sulfated CCR8 N-terminal peptide pm4
Summary of the method: as §1

pm5 = target: T7, pm5 (Y15 and Y17 sulfated; Y16 not sulfated); assay: ELISA on coated peptide [cont.]
T7 construct: also called sulfated CCR8 N-terminal peptide pm5
Summary of the method: as §1

pm6 = target: T8, pm6 (Y16 and Y17 sulfated; Y15 not sulfated); assay: ELISA on coated peptide [cont.]
T8 construct: also called sulfated CCR8 N-terminal peptide pm6
Summary of the method: as §1

pm8 = target: T9, pm8 (Y15, Y16 and Y17 sulfated); assay: ELISA on coated peptide [cont.]
T9 construct: also called sulfated CCR8 N-terminal peptide pm8
Summary of the method: as §1

human CCR8 [7] = target: T1, human CCR8; assay: flow cytometry, HUT78 cells (endogenous CCR8)
Procedure: In human activated T cells model, prior to mAb incubation, cells were first incubated with 200 nM of hCCL1 (R&D Systems, Minneapolis, MN, USA) or buffer PBS (Invitrogen by Thermofisher Scientific, Illkirch-Graffenstaden, France) supplemented by 2% Fetal Bovine Serum (Invitrogen by Thermofisher Scientific, Illkirch-Graffenstaden, France) and 2 mM EDTA (Invitrogen by Thermofisher Scientific, Illkirch-Graffenstaden, France) during 1 hour at 4° C. To determine EC50 value, 8 concentrations of anti-CCR8 mAb were tested. Unbound antibodies were washed away with PBS (Invitrogen by Thermofisher Scientific, Illkirch-Graffenstaden, France) supplemented by 2% Fetal Bovine Serum (Invitrogen by Thermofisher Scientific, Illkirch-Graffenstaden, France) and 2 mM EDTA (Invitrogen by Thermofisher Scientific, Illkirch-Graffenstaden, France). Subsequently, cells are centrifuged (5 min at 400 g) and bound antibody is detected with F(ab′)2-Goat anti-Mouse IgG (H+L) Cross-Adsorbed Secondary Antibody, Alexa Fluor 488 (dilution 1/500) (Invitrogen by Thermofisher Scientific, Illkirch-Graffenstaden, France) or with F(ab′)₂-Goat anti-Human IgG Fc Secondary Antibody, PE (Invitrogen by Thermofisher Scientific, Illkirch-Graffenstaden, France) (dilution 1/1000) at 4° C. for 30 min. Detection reagent is washed away and cells are centrifuged (5 min at 400 g) and resuspended in 30 μL PBS. Bound detection antibody is quantified on a MacsQuant16 (Miltenyi, Gladbach, Germany) (B1 or B2 channel, 5000 events per acquisition). During the experiment, the respective isotype mAb controls (mouse IgG1, mouse IgG2a, mouse IgG2b, mouse IgG3 or human IgG1) (Biolegend, Amsterdam, The Netherlands) are included to exclude any unspecific binding events. EC50 values were determined via nonlinear fit “log (agonist) vs.response—Variable slope (four parameters)” function of Graphpad prism. EC50 values were not constantly determined in the same experiments.
Anti-CCR8 mAb cellular reactivity was also evaluated on native human CCR8 from HUT78 cell line by flow cytometry. In Table 4.3, Mean Fluorescence Intensity (Fold change to isotype control), the percentage of labelled cells and EC50 in nM of some anti-CCR8 antibodies are presented.

[8] = target: T10, human CCR8 with a SNAP-tag at the N-terminus (human, UniProt P51685 1-355, SNAP-tag labelled covalently with Lumi4-Terbium); assay: HTRF Tag-lite, inhibition of hCCL1-AF647 binding to SNAP-hCCR8 on HEK-293 cells
T10 construct: also called hCCR8 SNAP-tag; CCR8 SNAP-tag
Procedure: The inhibition of CCL1 binding to hCCR8 was evaluated with the Tag-Lite® technology from Cisbio (Revvity). Human CCR8 is engineered with a SNAP-tag at the N-terminus of the GPCR. hCCR8 SNAP-tag is transiently transfected on HEK-293 cell line using FuGene® (Promega, Madison, WI, USA). 48 hours after transfection, cells are labeled with the substrate Lumi4-Terbium® (Cisbio, Codolet, France) which covalently reacts with the SNAP-tag, for 1 h at 37° C. Thawed or freshly labeled cells are plated in a 384 low volume white plate (GREINER Bio-One, Courtaboeuf, France) (10000 cells/well/10 μl). […] The Kd was previously obtained in a saturation binding assay on the same cells. […] The plate is next incubated at 21° C. for 2 h. Detection of HTRF signal is performed on the multiplate reader EnVision (PerkinElmer, Waltham, MA, USA). The HTRF (665/620) ratio is calculated by EnVision software, the data exported are considered as the total binding. The specific binding is calculated then by subtracting the non-specific signal from the total binding. The Ki and IC₅₀ are calculated using the “One site-Fit Ki” and “One site-FitlogIC50” from GraphPad Prism 9 (Graphpad Software, San Diego, CA, USA), respectively.

[9] = target: T10, human CCR8 with a SNAP-tag at the …; assay: cell-based or functional assay
human CCR8 [10] = target: T1, human CCR8; assay: cell-based or functional assay; remark: listed apart in the source

T8 sequence (peptide, as listed by the source): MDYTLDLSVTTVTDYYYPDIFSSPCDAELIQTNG
T6 sequence (peptide, as listed by the source): as above
T5 sequence (peptide, as listed by the source): as above
T4 sequence (peptide, as listed by the source): as above
T2 sequence (peptide, as listed by the source): as above
T3 sequence (peptide, as listed by the source): as above
T7 sequence (peptide, as listed by the source): as above
T9 sequence (peptide, as listed by the source): as above

| Binder | IC50 of CCL1-induced hCCR8 Gi2 signaling (BRET, HEK-293) (human CCR8 [1]) | residual hCCL1 (100 nM) Gi2 response, protocol #2, mAb 0.08 µg/mL (human CCR8 [2]) [%] | residual hCCL1 (100 nM) Gi2 response, protocol #2, mAb 0.4 µg/mL (human CCR8 [2]) [%] | residual hCCL1 (100 nM) Gi2 response, protocol #2, mAb 10 µg/mL (human CCR8 [2]) [%] | residual hCCL1 (100 nM) Gi2 response, protocol #3, mAb 0.05 µg/mL (human CCR8 [2]) [%] | residual hCCL1 (100 nM) Gi2 response, protocol #3, mAb 0.5 µg/mL (human CCR8 [2]) [%] | residual hCCL1 (100 nM) Gi2 response, protocol #3, mAb 5 µg/mL (human CCR8 [2]) [%] | extrapolated top plateau of hCCL1 curve with 5 µg/mL mAb, protocol #3 (human CCR8 [3]) | ADCP % max phagocytosis, HUT78 targets, MDM donor 9 (human CCR8 [6]) [%] | binding result (pwt1) | binding result (pm1) | binding result (pm2) | binding result (pm3) | binding result (pm4) | binding result (pm5) | binding result (pm6) | binding result (pm8) | % of labelled cells (human CCR8 [7]) [%] | IC50 [8] | Ki [8] | further results |
| --- | --- | --- | --- | --- | --- | --- | --- | --- | --- | --- | --- | --- | --- | --- | --- | --- | --- | --- | --- | --- | --- |
| B1 | 0.035 µg/mL and 0.232 nM | 74 | 54 | 40 | 89 | 63 | 51 | 138000 % of hCCL1 (100 nM) | 9.65 | binds | binds | binds | binds | binds | binds | binds | binds | 32 | 0.09 µg/mL and 0.6 nM | 0.05 µg/mL and 0.3 nM | IC50 of CCL1-induced hCCR8 Gi2 signaling (BRET), pH 6.5 (human CCR8 [4]): 0.025 µg/ml and 0.165 nM; IC50 of CCL1-induced hCCR8 Gi2 signaling (BRET), pH 7.4 (human CCR8 [4]): 0.035 µg/ml and 0.232 nM; ADCC % max lysis, HUT78 targets, NK donor 1 (human CCR8 [5]): 30%; ADCC % max lysis, HUT78 targets, NK donor 2 (human CCR8 [5]): 28%; ADCC EC50, HUT78 targets, NK donor 1 (human CCR8 [5]): 6.43 pM; ADCC EC50, HUT78 targets, NK donor 2 (human CCR8 [5]): 0.42 pM |
| B2 | – | – | – | – | – | – | – | – | 8.29 | – | – | – | – | – | – | – | – | 34 | – | – | ADCC % max lysis, HUT78 targets, NK donor 1 (human CCR8 [5]): 22%; ADCC % max lysis, HUT78 targets, NK donor 2 (human CCR8 [5]): 20%; ADCC EC50, HUT78 targets, NK donor 1 (human CCR8 [5]): 2.24 pM; ADCC EC50, HUT78 targets, NK donor 2 (human CCR8 [5]): 2.16 pM; EC50 (human CCR8 [7]): 400 pM; MFI fold change to isotype ctrl (human CCR8 [7]): 2.5 fold |
| B3 | 0.022 µg/mL and 0.148 nM | 67 | 55 | 32 | 86 | 60 | 42 | 569000 % of hCCL1 (100 nM) | – | binds | binds | binds | binds | binds | binds | binds | binds | 96 | 0.04 µg/mL | 0.02 µg/mL | % hCCR8 internalization with CCL1 300 nM, mAb 1 µg/ml (HTRF) [9]: 44%; % hCCR8 internalization with CCL1 300 nM, mAb 10 µg/ml (HTRF) [9]: 29%; ADCC % max lysis, HUT78 targets, NK donor 3 (human CCR8 [10]): 15%; ADCC % max lysis, HUT78 targets, NK donor 4 (human CCR8 [10]): 16%; ADCC EC50, HUT78 targets, NK donor 3 (human CCR8 [10]): 505 pM; ADCC EC50, HUT78 targets, NK donor 4 (human CCR8 [10]): 573 pM |
| B4 | 0.034 µg/mL and 0.224 nM | 77 | 66 | 41 | 73 | 52 | 37 | 366000 % of hCCL1 (100 nM) | – | binds | binds | binds | binds | binds | binds | binds | binds | 88 | 0.04 µg/mL | 0.02 µg/mL | % hCCR8 internalization with CCL1 300 nM, mAb 1 µg/ml (HTRF) [9]: 44%; % hCCR8 internalization with CCL1 300 nM, mAb 10 µg/ml (HTRF) [9]: 36%; EC50 (human CCR8 [7]): 200 pM |
| B5 | – | – | – | – | – | – | – | – | 7.27 | – | – | – | – | – | – | – | – | – | – | – | ADCC % max lysis, HUT78 targets, NK donor 3 (human CCR8 [10]): 25%; ADCC % max lysis, HUT78 targets, NK donor 4 (human CCR8 [10]): 28%; ADCC EC50, HUT78 targets, NK donor 3 (human CCR8 [10]): 218 pM; ADCC EC50, HUT78 targets, NK donor 4 (human CCR8 [10]): 53 pM |
